This note sets out measurements from article PMC10928148 (Molecular Therapy, 2024).

The target in assay [1] is T1, receptor binding domain of the SARS-CoV-2 (Wuhan) Spike protein with C-terminal 6xHis-tag (Severe acute respiratory syndrome …, UniProt P0DTC2). Put plainly: SPR. Particulars: both partners purified.
Assay [2] deals with T1, receptor binding domain of the …. Put plainly: SPR. Particulars: both partners purified. The source holds these as a separate data set.
Assay [3] addresses T2, receptor binding domain of the SARS-CoV-2 (Wuhan) Spike protein with C-terminal 6xHis-tag (SARS-CoV-2 (Wuhan), UniProt P0DTC2). The assay is described as follows: cell-based or functional assay.
The target in assay [4] is T2, receptor binding domain of the …. Put plainly: SPR. Particulars: both partners purified.

B1: 2-15 monomeric IgA1 (antibody, V domains shown)
VH: QVQLVQSGAEVKKPGASVRVSCKASGYTFTGYYMHWVRQAPGQGLEWMGWINPISDGTNYAQKFQGWVTMTRDTSISTVYMELSRLRSDDTAVYYCARGGSRCSGGNCYGWAYDAFDIWGQGTMITVSS
VL: QSALTQPASVSGSPGQSITISCTGTSSDVGGYNFVSWYQQHPGKAPKLMIYDVSKRPSGVSNRFSGSKSGNTASLTISGLQAEDEADCYCSSYTSSSTFVFGTGTKVTVL
As usually defined, the Kd is the free concentration of one partner at which half of the binding sites on the other are occupied at equilibrium, for simple one-to-one binding. High values mean a looser complex, low ones a tighter complex. With B1, in assay [1], the affinity, expressed as Kd, was 3.75 nM.

B2: 2-15 monomeric IgA2 (antibody, V domains shown)
VH: QVQLVQSGAEVKKPGASVRVSCKASGYTFTGYYMHWVRQAPGQGLEWMGWINPISDGTNYAQKFQGWVTMTRDTSISTVYMELSRLRSDDTAVYYCARGGSRCSGGNCYGWAYDAFDIWGQGTMITVSS
VL: QSALTQPASVSGSPGQSITISCTGTSSDVGGYNFVSWYQQHPGKAPKLMIYDVSKRPSGVSNRFSGSKSGNTASLTISGLQAEDEADCYCSSYTSSSTFVFGTGTKVTVL
For the molecule B2, the Kd in assay [1] turned out to be 2.88 nM.

B3: 2-15 IgG (antibody, V domains shown)
VH: QVQLVQSGAEVKKPGASVRVSCKASGYTFTGYYMHWVRQAPGQGLEWMGWINPISDGTNYAQKFQGWVTMTRDTSISTVYMELSRLRSDDTAVYYCARGGSRCSGGNCYGWAYDAFDIWGQGTMITVSS
VL: QSALTQPASVSGSPGQSITISCTGTSSDVGGYNFVSWYQQHPGKAPKLMIYDVSKRPSGVSNRFSGSKSGNTASLTISGLQAEDEADCYCSSYTSSSTFVFGTGTKVTVL
As to B3, the Kd in assay [1] came to 1.16 nM.

B4: COVA2-15 monomeric IgA1 (antibody, V domains shown)
VH: QVQLLESGGGLVQPGGSLRLSCAASGFTFSSYAMSWVRQAPGKGLEWASAISGSGGSTYYADSVEGRFTISRDNSKNTLYLQMNSLRAEDTAVYYCAKDTGYCGDDCYIKLIRGGPDYWGQGTLVTVSS
VL: DIVMTQSPLSLPVTLGQPASISCRSSQSLVYSDGNTFLNWFQQRPGQSPRRLIYQVSNRDSGVPDRFSGSGSGTDFTLKISRVEAEDVGVYYCMQGTHWPRTFGQGTKLEIK
Usually koff stands for a measure of how fast the partners let go of each other. Read a low koff as a long-lived complex. For orientation: kon means the second-order rate constant of association. High values mean fast association, low ones slow association. In assay [2], B4 gave a Kd of 1.43 nM, a koff of 0.00027 s⁻¹ and a kon of 231000 M⁻¹ s⁻¹.

B5: COVA2-15 monomeric IgA1 (antibody, V domains shown)
VH: QVQLLESGGGLVQPGGSLRLSCAASGFTFSSYAMSWVRQAPGKGLEWASAISGSGGSTYYADSVEGRFTISRDNSKNTLYLQMNSLRAEDTAVYYCAKDTGYCGDDCYIKLIRGGPDYWGQGTLVTVSS
VL: DIVMTQSPLSLPVTLGQPASISCRSSQSLVYSDGNTFLNWFQQRPGQSPRRLIYQVSNRDSGVPDRFSGSGSGTDFTLKISRVEAEDVGVYYCMQGTHWPRTFGQGTKLEIK
For B5, the other in assay [3] was found to be 50 ng/mL.

B6: COVA2-15 IgG (antibody, V domains shown)
VH: QVQLLESGGGLVQPGGSLRLSCAASGFTFSSYAMSWVRQAPGKGLEWASAISGSGGSTYYADSVEGRFTISRDNSKNTLYLQMNSLRAEDTAVYYCAKDTGYCGDDCYIKLIRGGPDYWGQGTLVTVSS
VL: DIVMTQSPLSLPVTLGQPASISCRSSQSLVYSDGNTFLNWFQQRPGQSPRRLIYQVSNRDSGVPDRFSGSGSGTDFTLKISRVEAEDVGVYYCMQGTHWPRTFGQGTKLEIK
In assay [4], B6 returned a Kd of 0.74 nM, a koff of 0.00024 s⁻¹ and a kon of 333000 M⁻¹ s⁻¹. In assay [3], this molecule displayed an other of 50 ng/mL.

B7: COVA2-15 monomeric IgA2 (antibody, V domains shown)
VH: QVQLLESGGGLVQPGGSLRLSCAASGFTFSSYAMSWVRQAPGKGLEWASAISGSGGSTYYADSVEGRFTISRDNSKNTLYLQMNSLRAEDTAVYYCAKDTGYCGDDCYIKLIRGGPDYWGQGTLVTVSS
VL: DIVMTQSPLSLPVTLGQPASISCRSSQSLVYSDGNTFLNWFQQRPGQSPRRLIYQVSNRDSGVPDRFSGSGSGTDFTLKISRVEAEDVGVYYCMQGTHWPRTFGQGTKLEIK
In assay [2], B7 returned a Kd of 1.67 nM, a koff of 0.00035 s⁻¹ and a kon of 207000 M⁻¹ s⁻¹.

B8: COVA2-15 secretory IgA1 (antibody, V domains shown)
VH: QVQLLESGGGLVQPGGSLRLSCAASGFTFSSYAMSWVRQAPGKGLEWASAISGSGGSTYYADSVEGRFTISRDNSKNTLYLQMNSLRAEDTAVYYCAKDTGYCGDDCYIKLIRGGPDYWGQGTLVTVSS
VL: DIVMTQSPLSLPVTLGQPASISCRSSQSLVYSDGNTFLNWFQQRPGQSPRRLIYQVSNRDSGVPDRFSGSGSGTDFTLKISRVEAEDVGVYYCMQGTHWPRTFGQGTKLEIK
In the case of B8, in assay [4], the affinity, expressed as Kd, was 0.38 nM; the koff was found to be 0.00016 s⁻¹; the kon was 423000 M⁻¹ s⁻¹. The same molecule yielded an other in assay [3] of 13.5 ng/mL.

B9: COVA2-15 secretory IgA2 (antibody, V domains shown)
VH: QVQLLESGGGLVQPGGSLRLSCAASGFTFSSYAMSWVRQAPGKGLEWASAISGSGGSTYYADSVEGRFTISRDNSKNTLYLQMNSLRAEDTAVYYCAKDTGYCGDDCYIKLIRGGPDYWGQGTLVTVSS
VL: DIVMTQSPLSLPVTLGQPASISCRSSQSLVYSDGNTFLNWFQQRPGQSPRRLIYQVSNRDSGVPDRFSGSGSGTDFTLKISRVEAEDVGVYYCMQGTHWPRTFGQGTKLEIK
As for B9, in assay [4], the Kd worked out at 0.76 nM, the koff is 0.00024 s⁻¹ and the kon is 326000 M⁻¹ s⁻¹. In assay [3], the other was determined as 13.5 ng/mL.

B10: COVA2-15 monomeric IgA2 (antibody, V domains shown)
VH: QVQLLESGGGLVQPGGSLRLSCAASGFTFSSYAMSWVRQAPGKGLEWASAISGSGGSTYYADSVEGRFTISRDNSKNTLYLQMNSLRAEDTAVYYCAKDTGYCGDDCYIKLIRGGPDYWGQGTLVTVSS
VL: DIVMTQSPLSLPVTLGQPASISCRSSQSLVYSDGNTFLNWFQQRPGQSPRRLIYQVSNRDSGVPDRFSGSGSGTDFTLKISRVEAEDVGVYYCMQGTHWPRTFGQGTKLEIK
In assay [3], B10 gave an other of 50 ng/mL.
